This experiment has as its target tropomyosin of native porcine cardiac thin filaments (porcine (endogenous in pig heart)) (UniProt P42639). The experiment in a line: cryo-EM structure.

The record followed here is publication PMC6281772.

Consider “C0C1 fragment of human cardiac myosin binding protein-C (C0-PA-C1) (domain or fragment)”, for which the frequency of segments with C1 in the C1-S position (C1 tethers actin and Tm) is 36%.
